Publication PMC8760232, “Is reduced ferredoxin the physiological electron donor for MetVF-type methylenetetrahydrofolate reductases in acetogenesis? A hypothesis” (International Microbiology, 2021)

What was measured:
[1] = target: MetVF heterodimer of the methylene-tetrahydrofolate reductase (MTHFR) from Clostridium ljungdahlii (Clostridium ljungdahlii (endogenous in C. ljungdahlii)); test: SEC; analytical gel filtration of the purified MTHFR on Superdex 200 Increase, column calibrated with high- and low-molecular weight kits; dimer of MetVF heterodimers
purified protein = substrate: Nc1nc2c(c(=O)[nH]1)N1CN(c3ccc(C(=O)N[C@@H](CCC(=O)O)C(=O)O)cc3)C[C@H]1CN2; test: purified protein; format: biochemical, Clostridium ljungdahlii; conditions: reduced ferredoxin as electron donor, 50 mM NaPi, 2 mM DTE, pH 7, 37 °C, methylene-THF made from formaldehyde and THF

For “MetVF heterodimer of the methylene-tetrahydrofolate reductase (MTHFR) from Clostridium ljungdahlii (complex)”, the stoichiometry N [1] was 2.

B1: MetVF-type methylene-THF reductase (MTHFR) of C. ljungdahlii (Clostridium ljungdahlii DSM 13528) (protein)
chain: MSLLKEAFEKGEFAITAEMAPPKGTDLSHLIECAKKIKGRVQGVNVTDFQSATLKATSLATCKVLKDAGLEPVFQITGRDRNRIAIQGELLSAGVFEIENVLALTGDYTATGDHPGAKPVYDLDSVGILQVASILNGGKDMGGTDLKGKPDFFLGACVTPRYDPLELQVIKMKKKIKAGAKFFQTQAVYDMETLKKFKEETKAQGVDAKVMVGIIPLKSAGMAKYMNKNVPGIFVPDELIDRMKNAEDKVQEGIKIAGEFIKAVKESGLCDGVHIMAIGAEENVPLILDEAGL
notes: native enzyme purified from C. ljungdahlii cytoplasm, untagged; (MetVF)2 dimer of heterodimers, ~106 kDa native; MetF 33-35 kDa, MetV 23 kDa; FMN and 4Fe-4S clusters; with Methylene-tetrahydrofolate reductase C-terminal-like domain-containing protein
With B1 the K0.5 (purified protein) was 70 µM.
